One assay deals with T1, human GIP receptor (human, UniProt P48546 22-466).
T1 sequence (looked up): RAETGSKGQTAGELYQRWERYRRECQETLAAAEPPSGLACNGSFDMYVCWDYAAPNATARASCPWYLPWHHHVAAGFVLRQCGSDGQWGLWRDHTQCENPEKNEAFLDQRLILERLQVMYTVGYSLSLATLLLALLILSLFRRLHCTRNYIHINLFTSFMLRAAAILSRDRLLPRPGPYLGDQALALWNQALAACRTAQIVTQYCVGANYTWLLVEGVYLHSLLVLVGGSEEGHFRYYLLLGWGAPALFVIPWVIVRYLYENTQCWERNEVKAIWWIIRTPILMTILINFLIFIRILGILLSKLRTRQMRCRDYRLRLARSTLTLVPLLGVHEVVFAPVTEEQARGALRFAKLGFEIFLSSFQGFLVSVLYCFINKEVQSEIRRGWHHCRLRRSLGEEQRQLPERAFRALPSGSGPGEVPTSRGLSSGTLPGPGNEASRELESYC
Briefly: cell-based or functional assay.

For another assay, the target named is human GLP-1 receptor (human, UniProt P43220 24-463). The experiment in a line: cell-based or functional assay.

Numbered stars: 1 amine (or outer) side, 2 acyl side, 3 side chain; on linkers, the order of the positions; unused ones are H or OH. Square brackets hold non-standard residues; d marks the D form. Side chains are listed from the residue outwards. Ends that are not written are not given here. * marks the point of attachment. C20 diacid = O=C(O)CCCCCCCCCCCCCCCCCCC(=O)*; γGlu = O=C(O)[C@H](CCC(=O)[*:2])N[*:1]; AEEA = NCCOCCOCC(=O)O; Aib = CC(C)(N)C(=O)O

B1: Example 11 (peptide)
peptide: Y[Aib]EGTFTSDYSILLDSIAQ[Aib]AFIEYLLK([AEEA-AEEA-γGlu-C20 diacid])[Aib]GPSSGAPPPS-NH2
modifications: N-terminus assumed
SMILES: CC[C@H](C)[C@H](NC(=O)[C@H](CO)NC(=O)[C@H](CC(=O)O)NC(=O)[C@H](CC(C)C)NC(=O)[C@H](CC(C)C)NC(=O)[C@@H](NC(=O)[C@H](CO)NC(=O)[C@H](Cc1ccc(O)cc1)NC(=O)[C@H](CC(=O)O)NC(=O)[C@H](CO)NC(=O)[C@@H](NC(=O)[C@H](Cc1ccccc1)NC(=O)[C@@H](NC(=O)CNC(=O)[C@H](CCC(=O)O)NC(=O)C(C)(C)NC(=O)[C@@H](N)Cc1ccc(O)cc1)[C@@H](C)O)[C@@H](C)O)[C@@H](C)CC)C(=O)N[C@@H](C)C(=O)N[C@@H](CCC(N)=O)C(=O)NC(C)(C)C(=O)N[C@@H](C)C(=O)N[C@@H](Cc1ccccc1)C(=O)N[C@H](C(=O)N[C@@H](CCC(=O)O)C(=O)N[C@@H](Cc1ccc(O)cc1)C(=O)N[C@@H](CC(C)C)C(=O)N[C@@H](CC(C)C)C(=O)N[C@@H](CCCCNC(=O)COCCOCCNC(=O)COCCOCCNC(=O)CC[C@H](NC(=O)CCCCCCCCCCCCCCCCCCC(=O)O)C(=O)O)C(=O)NC(C)(C)C(=O)NCC(=O)N1CCC[C@H]1C(=O)N[C@@H](CO)C(=O)N[C@@H](CO)C(=O)NCC(=O)N[C@@H](C)C(=O)N1CCC[C@H]1C(=O)N1CCC[C@H]1C(=O)N1CCC[C@H]1C(=O)N[C@@H](CO)C(N)=O)[C@@H](C)CC
For the molecule B1, in the assay with human GIP receptor, the “hGIPR cAMP EC50 ratio” value amounted to 0.399 and the “hGIPR cAMP Rel EC50” value amounted to 0.486 nM. Further, in the assay with human GLP-1 receptor, the “hGLP1R cAMP EC50 ratio” value came to 0.0111 and the “hGLP1R cAMP Rel EC50” value stood at 6.89 nM.

B2: Example 12 (peptide)
peptide: Y[Aib]EGTFTSDYSILLDKIAQK([AEEA-AEEA-γGlu-C20 diacid])AFIEYLIEGGPSSGAPPPS-NH2
modifications: N-terminus assumed
SMILES: CC[C@H](C)[C@H](NC(=O)[C@H](CCCCN)NC(=O)[C@H](CC(=O)O)NC(=O)[C@H](CC(C)C)NC(=O)[C@H](CC(C)C)NC(=O)[C@@H](NC(=O)[C@H](CO)NC(=O)[C@H](Cc1ccc(O)cc1)NC(=O)[C@H](CC(=O)O)NC(=O)[C@H](CO)NC(=O)[C@@H](NC(=O)[C@H](Cc1ccccc1)NC(=O)[C@@H](NC(=O)CNC(=O)[C@H](CCC(=O)O)NC(=O)C(C)(C)NC(=O)[C@@H](N)Cc1ccc(O)cc1)[C@@H](C)O)[C@@H](C)O)[C@@H](C)CC)C(=O)N[C@@H](C)C(=O)N[C@@H](CCC(N)=O)C(=O)N[C@@H](CCCCNC(=O)COCCOCCNC(=O)COCCOCCNC(=O)CC[C@H](NC(=O)CCCCCCCCCCCCCCCCCCC(=O)O)C(=O)O)C(=O)N[C@@H](C)C(=O)N[C@@H](Cc1ccccc1)C(=O)N[C@H](C(=O)N[C@@H](CCC(=O)O)C(=O)N[C@@H](Cc1ccc(O)cc1)C(=O)N[C@@H](CC(C)C)C(=O)N[C@H](C(=O)N[C@@H](CCC(=O)O)C(=O)NCC(=O)NCC(=O)N1CCC[C@H]1C(=O)N[C@@H](CO)C(=O)N[C@@H](CO)C(=O)NCC(=O)N[C@@H](C)C(=O)N1CCC[C@H]1C(=O)N1CCC[C@H]1C(=O)N1CCC[C@H]1C(=O)N[C@@H](CO)C(N)=O)[C@@H](C)CC)[C@@H](C)CC
In the case of B2, in the assay with human GIP receptor, the “hGIPR cAMP EC50 ratio” value amounted to 0.659 and the “hGIPR cAMP Rel EC50” value stood at 0.3 nM. In the assay with human GLP-1 receptor, the “hGLP1R cAMP EC50 ratio” value worked out at 0.0603 and the “hGLP1R cAMP Rel EC50” value was determined as 1.15 nM.
